Data taken from publication PMC10397247.

Experiments:
4H3277-bN = biological target: T1, 4H3277-bN; experiment: two-hybrid library CCNG1;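 further: natural log of median RNA to DNA barcode read ratio; higher means stronger binding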
T1 chain: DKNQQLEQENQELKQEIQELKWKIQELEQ

4H477-bN = biological target: T2, 4H477-bN; experiment: two-hybrid library CCNG1;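 further: natural log of median RNA to DNA barcode read ratio; higher means stronger binding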
T2 chain: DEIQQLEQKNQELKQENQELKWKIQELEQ

4H741-bN = biological target: T3, 4H741-bN; experiment: two-hybrid library CCNG1;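 further: natural log of median RNA to DNA barcode read ratio; higher means stronger binding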
T3 chain: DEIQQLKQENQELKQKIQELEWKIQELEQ

4H2915-bN = biological target: T4, 4H2915-bN; experiment: two-hybrid library CCNG1;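 further: natural log of median RNA to DNA barcode read ratio; higher means stronger binding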
T4 chain: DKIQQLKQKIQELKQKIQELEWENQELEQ

4H3057-bN = biological target: T5, 4H3057-bN; experiment: two-hybrid library CCNG1
T5 chain: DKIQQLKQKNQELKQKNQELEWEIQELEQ

4H2692-bN = biological target: T6, 4H2692-bN; experiment: two-hybrid library CCNG1
T6 chain: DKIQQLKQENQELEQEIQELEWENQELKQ

4H492-bN = biological target: T7, 4H492-bN; experiment: two-hybrid library CCNG1
T7 chain: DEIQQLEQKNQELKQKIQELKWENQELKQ

4H2717-bN = biological target: T8, 4H2717-bN; experiment: two-hybrid library CCNG1
T8 chain: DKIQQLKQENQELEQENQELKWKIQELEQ

4H348-bN = biological target: T9, 4H348-bN; experiment: two-hybrid library CCNG1
T9 chain: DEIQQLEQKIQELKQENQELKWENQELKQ

4H319-bN = biological target: T10, 4H319-bN; experiment: two-hybrid library CCNG1
T10 chain: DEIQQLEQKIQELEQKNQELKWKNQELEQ

4H2588-bN = biological target: T11, 4H2588-bN; experiment: two-hybrid library CCNG1
T11 chain: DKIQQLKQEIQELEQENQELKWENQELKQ

4H40-bN = biological target: T12, 4H40-bN; experiment: two-hybrid library CCNG1
T12 chain: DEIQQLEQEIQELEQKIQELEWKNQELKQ

4H2839-bN = biological target: T13, 4H2839-bN; experiment: two-hybrid library CCNG1
T13 chain: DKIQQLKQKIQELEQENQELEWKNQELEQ

APC3354-AA = biological target: T14, APC3354-AA; experiment: two-hybrid library CCmax; settings: mean of both orientations
T14 chain: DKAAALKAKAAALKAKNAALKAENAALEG

APC3265-AA = biological target: T15, APC3265-AA; experiment: two-hybrid library CCmax; settings: mean of both orientations
T15 chain: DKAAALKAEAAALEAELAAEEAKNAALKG

APC9182-AA = biological target: T16, APC9182-AA; experiment: two-hybrid library CCmax; settings: mean of both orientations
T16 chain: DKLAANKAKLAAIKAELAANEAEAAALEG

APC9291-AA = biological target: T17, APC9291-AA; experiment: two-hybrid library CCmax; settings: mean of both orientations
T17 chain: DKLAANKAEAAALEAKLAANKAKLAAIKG

APC2556-AA = biological target: T18, APC2556-AA; experiment: two-hybrid library CCmax
T18 chain: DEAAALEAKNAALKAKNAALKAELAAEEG

APC4100-AA = biological target: T19, APC4100-AA; experiment: two-hybrid library CCmax; settings: mean of both orientations
T19 chain: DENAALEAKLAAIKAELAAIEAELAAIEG

APC8401-AA = biological target: T20, APC8401-AA; experiment: two-hybrid library CCmax; settings: mean of both orientations
T20 chain: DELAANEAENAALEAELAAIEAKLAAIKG

APC8516-AA = biological target: T21, APC8516-AA; experiment: two-hybrid library CCmax; settings: mean of both orientations
T21 chain: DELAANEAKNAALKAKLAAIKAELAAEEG

APC2724-AA = biological target: T22, APC2724-AA; experiment: two-hybrid library CCmax; settings: mean of both orientations
T22 chain: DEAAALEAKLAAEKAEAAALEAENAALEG

APC3881-AA = biological target: T23, APC3881-AA; experiment: two-hybrid library CCmax; settings: mean of both orientations
T23 chain: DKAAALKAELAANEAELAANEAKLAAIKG

APC2981-AA = biological target: T24, APC2981-AA; experiment: two-hybrid library CCmax; settings: mean of both orientations
T24 chain: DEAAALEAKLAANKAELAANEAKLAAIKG

APC6088-AA = biological target: T25, APC6088-AA; experiment: two-hybrid library CCmax; settings: mean of both orientations
T25 chain: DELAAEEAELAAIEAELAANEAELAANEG

APC7524-AA = biological target: T26, APC7524-AA; experiment: two-hybrid library CCmax; settings: mean of both orientations
T26 chain: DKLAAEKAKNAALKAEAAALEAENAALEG

APC3323-AA = biological target: T27, APC3323-AA; experiment: two-hybrid library CCmax; settings: mean of both orientations
T27 chain: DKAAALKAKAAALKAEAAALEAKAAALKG

APC5009-AA = biological target: T28, APC5009-AA; experiment: two-hybrid library CCmax; settings: mean of both orientations
T28 chain: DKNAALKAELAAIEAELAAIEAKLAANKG

APC5531-AA = biological target: T29, APC5531-AA; experiment: two-hybrid library CCmax; settings: mean of both orientations
T29 chain: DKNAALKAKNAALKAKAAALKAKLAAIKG

APC2811-AA = biological target: T30, APC2811-AA; experiment: two-hybrid library CCmax; settings: mean of both orientations
T30 chain: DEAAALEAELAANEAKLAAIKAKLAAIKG

APC542-AA = biological target: T31, APC542-AA; experiment: two-hybrid library CCmax; settings: mean of both orientations
T31 chain: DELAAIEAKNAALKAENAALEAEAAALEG

APC9806-AA = biological target: T32, APC9806-AA; experiment: two-hybrid library CCmax; settings: mean of both orientations
T32 chain: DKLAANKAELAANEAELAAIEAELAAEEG

APC9141-AA = biological target: T33, APC9141-AA; experiment: two-hybrid library CCmax; settings: mean of both orientations
T33 chain: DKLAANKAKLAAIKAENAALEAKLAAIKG

APC4336-AA = biological target: T34, APC4336-AA; experiment: two-hybrid library CCmax; settings: mean of both orientations
T34 chain: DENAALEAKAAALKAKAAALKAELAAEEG

4H470-bN = biological target: T35, 4H470-bN; experiment: two-hybrid library CCNG1
T35 chain: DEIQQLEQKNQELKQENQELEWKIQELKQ

O4-bH = biological target: T36, O4-bH; experiment: two-hybrid library CCNG1
T36 chain: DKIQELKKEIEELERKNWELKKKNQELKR

O8-bP = biological target: T37, O8-bP; experiment: two-hybrid library CCNG1
T37 chain: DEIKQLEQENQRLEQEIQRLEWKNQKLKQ

O9-bH = biological target: T38, O9-bH; experiment: two-hybrid library CCNG1
T38 chain: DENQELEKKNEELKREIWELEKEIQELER

O8-bH = biological target: T39, O8-bH; experiment: two-hybrid library CCNG1
T39 chain: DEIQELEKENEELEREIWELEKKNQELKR

O3-bH = biological target: T40, O3-bH; experiment: two-hybrid library CCNG1
T40 chain: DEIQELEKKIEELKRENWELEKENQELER

O7-bH = biological target: T41, O7-bH; experiment: two-hybrid library CCNG1
T41 chain: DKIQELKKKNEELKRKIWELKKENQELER

O5-bH = biological target: T42, O5-bH; experiment: two-hybrid library CCNG1
T42 chain: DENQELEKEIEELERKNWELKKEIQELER

O6-bH = biological target: T43, O6-bH; experiment: two-hybrid library CCNG1
T43 chain: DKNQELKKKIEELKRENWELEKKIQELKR

## DKIQQLKQEIQELEQENQELKWENQELKQ [4H2588-bN]
4H3277-bN
  interaction score: -0.49
4H477-bN
  interaction score: -1.95
4H741-bN
  interaction score: 0.0254
4H2915-bN
  interaction score: 0.795
4H3057-bN
  interaction score: -1.34
4H2692-bN
  interaction score: 0.0187
4H492-bN
  interaction score: -0.343
4H2717-bN
  interaction score: 0.223
4H348-bN
  interaction score: 1.49
4H319-bN
  interaction score: -0.863
4H2588-bN
  interaction score: 0.138
4H40-bN
  interaction score: -0.648
4H2839-bN
  interaction score: -1.16

## DEAAALEAKNAALKAKNAALKAELAAEEG [APC2556-AA]
APC3354-AA
  interaction score: -1.9
APC3265-AA
  interaction score: -1.69
APC9182-AA
  interaction score: -1.74
APC9291-AA
  interaction score: -1.79
APC2556-AA
  interaction score: -1.78
APC4100-AA
  interaction score: -2.2
APC8401-AA
  interaction score: -1.48
APC8516-AA
  interaction score: -2.01
APC2724-AA
  interaction score: -1.65
APC3881-AA
  interaction score: -1.61
APC2981-AA
  interaction score: -1.98
APC6088-AA
  interaction score: -1.75
APC7524-AA
  interaction score: -2.09
APC3323-AA
  interaction score: -1.82
APC5009-AA
  interaction score: -1.65
APC5531-AA
  interaction score: -1.7
APC2811-AA
  interaction score: -1.73
APC542-AA
  interaction score: -1.72
APC9806-AA
  interaction score: -2.15
APC9141-AA
  interaction score: -1.94
APC4336-AA
  interaction score: -1.77

## DEIQQLEQKNQELKQENQELEWKIQELKQ [4H470-bN]
4H470-bN
  interaction score: -0.484

## DENQELEKKNEELKRKIWELKKKIQELKR [O2-bH]
O4-bH
  interaction score: -0.611
O8-bP
  interaction score: -0.645
O9-bH
  interaction score: 0.854
O8-bH
  interaction score: 0.211
O3-bH
  interaction score: 0.993
O7-bH
  interaction score: -0.662
O5-bH
  interaction score: -1.53
O6-bH
  interaction score: 0.712
